One molecule from publication PMC3392941 (The Journal of Cell Biology, 2012) can be followed below.

This experiment addresses T1, Recombinant Myo2 CBD, Myo2(1,131–1,574) (S. cerevisiae, UniProt P19524 1131-1574).
T1 sequence: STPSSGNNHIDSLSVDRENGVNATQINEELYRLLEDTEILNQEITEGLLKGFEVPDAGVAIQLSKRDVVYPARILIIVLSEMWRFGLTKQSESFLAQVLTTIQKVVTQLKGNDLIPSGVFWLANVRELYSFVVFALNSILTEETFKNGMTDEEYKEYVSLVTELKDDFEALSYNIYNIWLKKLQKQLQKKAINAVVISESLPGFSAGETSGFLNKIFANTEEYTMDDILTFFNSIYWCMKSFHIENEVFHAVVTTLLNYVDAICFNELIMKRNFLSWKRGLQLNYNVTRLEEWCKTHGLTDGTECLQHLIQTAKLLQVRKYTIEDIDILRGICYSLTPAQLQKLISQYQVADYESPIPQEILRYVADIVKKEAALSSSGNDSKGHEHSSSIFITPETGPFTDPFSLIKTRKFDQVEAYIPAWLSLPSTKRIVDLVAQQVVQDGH
Briefly: SEC. A general note: SEC sorts molecules by how far they enter the pores of the column.

Consider PNEAPNDSPQSQSTRSSLGSFQPRPLKIIERQRLCMVTPSKPPKKS (domain or fragment) [MBP-Vac17(112–157)], for which the binding result is “binds”.
